The record followed here is patent US20170114099A1 (Affibody, published 2017).

Common to all, as to assay: cell-based or functional assay
The target of experiment [1] is T1, human IL-6 receptor alpha (hIL-6Rα) (human, UniProt P08887 20-358, limits assumed).
T1 sequence (looked up): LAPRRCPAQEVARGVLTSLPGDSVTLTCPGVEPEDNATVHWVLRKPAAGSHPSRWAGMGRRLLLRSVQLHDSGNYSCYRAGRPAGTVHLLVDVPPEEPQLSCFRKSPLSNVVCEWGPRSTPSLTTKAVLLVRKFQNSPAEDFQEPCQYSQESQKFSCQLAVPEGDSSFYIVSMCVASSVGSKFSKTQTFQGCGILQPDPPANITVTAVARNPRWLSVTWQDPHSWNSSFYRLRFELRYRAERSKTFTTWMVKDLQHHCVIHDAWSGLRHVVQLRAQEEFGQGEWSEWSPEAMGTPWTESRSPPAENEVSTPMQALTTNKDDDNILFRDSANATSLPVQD

For experiment [2], the target named is T2, cell surface IL-6 receptor on TF-1 cells (UniProt P08887 20-468, limits assumed).
T2 sequence (looked up): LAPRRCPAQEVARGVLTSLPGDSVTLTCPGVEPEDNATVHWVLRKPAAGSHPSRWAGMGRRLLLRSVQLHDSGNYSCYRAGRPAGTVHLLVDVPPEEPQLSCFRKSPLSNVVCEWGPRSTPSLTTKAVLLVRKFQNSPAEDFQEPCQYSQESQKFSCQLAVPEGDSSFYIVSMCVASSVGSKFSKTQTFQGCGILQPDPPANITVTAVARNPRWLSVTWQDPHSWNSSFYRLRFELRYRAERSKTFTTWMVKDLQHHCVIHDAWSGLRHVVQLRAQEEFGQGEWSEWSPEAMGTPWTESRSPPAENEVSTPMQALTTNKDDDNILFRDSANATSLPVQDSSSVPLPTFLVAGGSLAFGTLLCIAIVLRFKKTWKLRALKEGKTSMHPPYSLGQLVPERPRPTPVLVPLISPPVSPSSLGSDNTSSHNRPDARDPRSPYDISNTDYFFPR

Experiment [3] deals with T2, cell surface IL-6 receptor on TF-1 cells. The source holds these as a separate data set.

Like-named read-outs stand apart in the source and are kept apart here.

B1: tocilizumab (antibody, V domains shown)
VH: QVQLQESGPGLVRPSQTLSLTCTVSGYSITSDHAWSWVRQPPGRGLEWIGYISYSGITTYNPSLKSRVTMLRDTSKNQFSLRLSSVTAADTAVYYCARSLARTTAMDYWGQGSLVTVSS
VL: DIQMTQSPSSLSASVGDRVTITCRASQDISSYLNWYQQKPGKAPKLLIYYTSRLHSGVPSRFSGSGSGTDFTFTISSLQPEDIATYYCQQGNTLPYTFGQGTKVEIKR
Consider B1, for which the “IC50, inhibition of IL-6 trans-signaling dependent MCP-1 secretion by HUVECs” value in experiment [1] was ~5 nM. Besides, the “IC50 blocking the IL-6 dependent growth of TF-1 cells” value came to 0.3 nM in experiment [2] and 0.41 nM in experiment [3].
